Source: US20230331827A1, “POTASSIUM CHANNEL INHIBITORS” (priority 2017, published 2023)

Target: T1, huASIC1a (Homo sapiens, UniProt P78348)
T1 construct: host or cells: HEK293
T1 sequence (P78348 1-528): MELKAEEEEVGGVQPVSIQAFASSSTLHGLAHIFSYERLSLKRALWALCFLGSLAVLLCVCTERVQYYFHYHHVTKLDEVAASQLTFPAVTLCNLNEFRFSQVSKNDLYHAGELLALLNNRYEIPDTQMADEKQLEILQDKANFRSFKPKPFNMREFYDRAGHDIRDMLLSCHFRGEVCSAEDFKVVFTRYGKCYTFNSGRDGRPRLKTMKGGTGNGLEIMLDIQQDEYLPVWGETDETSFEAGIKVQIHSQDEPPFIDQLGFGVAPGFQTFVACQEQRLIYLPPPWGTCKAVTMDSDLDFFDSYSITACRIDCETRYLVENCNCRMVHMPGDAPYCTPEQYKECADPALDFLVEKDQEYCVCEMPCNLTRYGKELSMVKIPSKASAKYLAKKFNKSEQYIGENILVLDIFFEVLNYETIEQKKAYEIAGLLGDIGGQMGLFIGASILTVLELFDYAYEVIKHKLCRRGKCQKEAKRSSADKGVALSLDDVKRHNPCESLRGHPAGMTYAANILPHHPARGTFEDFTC
Experiment: QPatch electrophysiology, HEK293 cells stably expressing huASIC1a
Type: cell-based
Conditions: ASIC1a current at pH 6.0 after 15-20 minutes KnotBody pre-incubation, 2.3-6.6 µM
Procedure: Knottin Kv 1.3 and ASIC1a blockers expressed in the KnotBody format (see examples 6 and 7) were tested for their ability to inhibit the function of the ion channel targets. The effect of these KnotBodies on cells expressing the human Kv 1.3 (huKv1.3) or human ASIC1a channels was assessed using QPatch automated whole-cell patch-clamp electrophysiology (Sophion).
To functionally assess the ASIC1a KnotBodies, HEK293 cells stably expressing huASIC1a (Sophion) were analysed using a QPatch electrophysiology assay in the presence or absence of the KnotBody fusions (using KB_A12 as a recipient and replacing the original EETI-II donor as shown in Table 8). The “parental” KB_A12 with the EETI-II donor was used as a negative control. Internal and external physiological solutions were freshly prepared prior to the assay. The extracellular solution contained 145 mM NaCl, 4 mM KCl, 2 mM CaCl2, 1 mM MgCl2, 10 mM HEPES and 10 mM glucose; the pH was adjusted to 7.4 with NaOH (for control, resting-state pH) or 6.0 with MES (for acidic, activating-state pH); the osmolarity was ~ 305 mOsm/L. The intracellular solution contained: CsF (140 mM), HEPES (10 mM), NaCl (10 mM) and EGTA/CsOH (1 mM/5 mM); the pH was adjusted to 7.3 with CsOH; osmolarity was ~ 320 mOsm/L.
Throughout ASIC 1a recordings the recording cell membrane voltage was clamped at -60 mV. ASIC1a baseline control currents were elicited by applying external solution at activating pH 6.0 for 3000 ms. This activating pH application was repeated three further times, giving four baseline control ASIC1a currents. The recording cells were then pre-incubated with KnotBody diluted in external solution at pH 7.4 for 15-20 minutes. Following this KnotBody pre-incubation the same concentration of KnotBody in external solution at activating pH 6.0 was applied to the cell recording.
At the end of each KnotBody incubation and subsequent ASIC1a current activation, a full blocking concentration (300 nM) of the ASIC1a knottin inhibitor PcTx1 (positive control) was perfused onto the cell recording and a final activating pH 6.0 external solution was applied. The percentage remaining signal between activating pH 6.0 baseline (i.e. pre-KnotBody) and post-KnotBody incubation was determined.

B1: KB_A07: EETI-II knottin fused into VL CDR2, D1A12 VH; parental KnotBody, isotype control (antibody, V domains shown)
VH: EVQLVESGGGLVRPGGSLRLSCAASGFTFSSYAMSWVRQAPGKGLEWVSAISGSGGSTYYADSVKGRFTISRDNTKNSLYLQMTSLRADDTAFYYCVKDFGPGYGTGWFDYWGPGTLVTVSS
VL: DIQMTQSPSSLSASVGDRVTITCRASQSISSYLNWYQQKPGKAPKLLIYAAGVCPRILMRCKQDSDCLAGCVCGPNGFCGSRSGVPSRFSGSGSGTDFTLTISSLQPEDFATYYCQQGASPPYTFGQGTKVEIKRT
% current remaining: 70.9%

B2: KB_A12: EETI-II knottin fused into VL CDR2, D1A12 VH; parental KnotBody, isotype control (antibody, V domains shown)
VH: B1 VH
VL: QSVLTQPPSVSEAPRQRVTITCSGSSSNIGNNAVNWYQQLPGKAPKLLIYAAGRCPRILMRCKQDSDCLAGCVCGPNGFCGANSGVSDRFSAAKSGTSASLAINGLRSEDEADYYCAAWDDSLNGYVFGTGTKLTVLGQP
% current remaining: 67.4%
